How the values were obtained:
Test in all cases: MST; His-tagged DHS variants labelled with RED-tris-NTA 2nd Generation, 8.32 nM; eIF5A titrated, sixteen dilutions 0.00175–57.5 μM; 50 mM Tris, 200 mM NaCl, 5 mM β-ME pH 8; Monolith NT.115, 40% excitation power, 60% MST power; no NAD or SPD
Conditions in all cases: both partners purified
[1] = biological target: T1, deoxyhypusine synthase Y250A, His-tagged (human, UniProt P49366 1-369, Y250A, RED-tris-NTA 2nd Generation dye on the His tag)
T1 construct: human deoxyhypusine synthase, Uniprot P49366, residues 1-369, site-directed mutant of the pET24d full-length construct; also called DHS Y250A; source: E. coli, purified; not shown: 6xHis, N-terminal, kept
T1 sequence (looked up): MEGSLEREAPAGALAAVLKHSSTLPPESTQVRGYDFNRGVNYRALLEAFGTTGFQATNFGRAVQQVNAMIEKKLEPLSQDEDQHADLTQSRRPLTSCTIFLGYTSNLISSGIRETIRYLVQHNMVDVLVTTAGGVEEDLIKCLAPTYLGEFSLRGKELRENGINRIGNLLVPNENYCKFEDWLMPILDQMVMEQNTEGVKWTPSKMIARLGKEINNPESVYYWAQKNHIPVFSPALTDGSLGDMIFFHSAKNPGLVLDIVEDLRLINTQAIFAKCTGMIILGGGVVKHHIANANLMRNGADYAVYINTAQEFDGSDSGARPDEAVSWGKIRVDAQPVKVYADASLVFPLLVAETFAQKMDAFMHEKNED

[2] = biological target: T2, deoxyhypusine synthase N173A, His-tagged (human, UniProt P49366 1-369, N173A, RED-tris-NTA 2nd Generation dye on the His tag)
T2 construct: human deoxyhypusine synthase, Uniprot P49366, residues 1-369, site-directed mutant of the pET24d full-length construct; also called DHS N173A; source: E. coli, purified; not shown: 6xHis, N-terminal, kept
T2 sequence (looked up): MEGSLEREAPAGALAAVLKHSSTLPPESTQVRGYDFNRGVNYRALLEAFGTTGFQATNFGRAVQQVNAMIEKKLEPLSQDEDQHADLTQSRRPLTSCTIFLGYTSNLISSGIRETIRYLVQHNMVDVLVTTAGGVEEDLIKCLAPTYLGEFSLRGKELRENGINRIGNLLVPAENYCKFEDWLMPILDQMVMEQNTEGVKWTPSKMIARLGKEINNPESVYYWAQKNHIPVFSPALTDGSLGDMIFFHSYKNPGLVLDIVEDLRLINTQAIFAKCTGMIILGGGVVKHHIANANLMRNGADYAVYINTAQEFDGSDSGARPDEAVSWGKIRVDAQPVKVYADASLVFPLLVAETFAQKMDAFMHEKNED

[3] = biological target: T3, deoxyhypusine synthase I271A, His-tagged (human, UniProt P49366 1-369, I271A, RED-tris-NTA 2nd Generation dye on the His tag)
T3 construct: human deoxyhypusine synthase, Uniprot P49366, residues 1-369, site-directed mutant of the pET24d full-length construct; also called DHS I271A; source: E. coli, purified; not shown: 6xHis, N-terminal, kept
T3 sequence (looked up): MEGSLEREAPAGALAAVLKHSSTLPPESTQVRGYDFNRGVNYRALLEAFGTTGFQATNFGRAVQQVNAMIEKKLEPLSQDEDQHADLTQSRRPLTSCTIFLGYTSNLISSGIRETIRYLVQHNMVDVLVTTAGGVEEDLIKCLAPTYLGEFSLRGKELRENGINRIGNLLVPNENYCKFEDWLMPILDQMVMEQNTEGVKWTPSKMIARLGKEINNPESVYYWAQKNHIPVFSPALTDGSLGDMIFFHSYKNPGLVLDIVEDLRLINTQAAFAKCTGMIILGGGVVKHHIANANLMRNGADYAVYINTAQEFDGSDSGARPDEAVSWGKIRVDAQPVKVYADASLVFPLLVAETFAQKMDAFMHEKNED

[4] = biological target: T4, deoxyhypusine synthase L295A, His-tagged (human, UniProt P49366 1-369, L295A, RED-tris-NTA 2nd Generation dye on the His tag)
T4 construct: human deoxyhypusine synthase, Uniprot P49366, residues 1-369, site-directed mutant of the pET24d full-length construct; also called DHS L295A; source: E. coli, purified; not shown: 6xHis, N-terminal, kept
T4 sequence (looked up): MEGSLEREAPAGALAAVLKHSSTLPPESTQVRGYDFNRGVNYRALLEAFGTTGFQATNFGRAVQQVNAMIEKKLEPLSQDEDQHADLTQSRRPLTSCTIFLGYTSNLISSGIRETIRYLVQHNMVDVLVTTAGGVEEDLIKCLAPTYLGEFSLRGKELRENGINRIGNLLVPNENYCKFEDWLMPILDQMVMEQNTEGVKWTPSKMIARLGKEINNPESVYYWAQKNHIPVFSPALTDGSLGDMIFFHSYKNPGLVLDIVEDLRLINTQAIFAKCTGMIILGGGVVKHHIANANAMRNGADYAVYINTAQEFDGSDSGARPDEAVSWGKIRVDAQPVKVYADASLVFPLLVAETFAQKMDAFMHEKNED

- Kd [1]: > 5 µM
- Kd [2]: > 5 µM
- Kd [3]: 0.056 ± 0.016 µM
- Kd [4]: 0.393 ± 0.107 µM
B1: eukaryotic translation factor 5A (eIF5A-1), residues 15-151 (domain or fragment)
chain: not shown
notes: human eIF5A1, residues 15-151, from pET28-MHL (Addgene); The purification protocol removes the tag with TEV; source: E. coli, purified (HisTrap, TEV cleavage, reverse HisTrap, SEC); not shown: His tag, N-terminal, cleaved

From paper PMC10042821, “Cryo-EM structure of human eIF5A-DHS complex reveals the molecular basis of hypusination-associated neurodegenerative disorders” (Nature Communications, 2023)
